Source: PMC2990581, “Molecular imaging of glioblastoma multiforme using anti-insulin-like growth factor-binding protein-7 single-domain antibodies” (British Journal of Cancer, 2010)

What was measured:
[1] = target: T1, recombinant human insulin-like growth factor-binding protein 7 (IGFBP7), R&D Systems (human) (UniProt Q16270); assay: SPR; Biacore 3000; ~1400 RU recombinant human IGFBP7 amine-coupled on a CM5 chip, ovalbumin as reference; sdAb flowed at 25-200 nM; 25°C; 10 mM HEPES pH 7.4, 150 mM NaCl, 3 mM EDTA, 0.005% P20; 40 μl/min; 1:1 kinetic fit of the 25 nM data, steady-state affinity model and Scatchard plot of the equilibrium data
T1 sequence: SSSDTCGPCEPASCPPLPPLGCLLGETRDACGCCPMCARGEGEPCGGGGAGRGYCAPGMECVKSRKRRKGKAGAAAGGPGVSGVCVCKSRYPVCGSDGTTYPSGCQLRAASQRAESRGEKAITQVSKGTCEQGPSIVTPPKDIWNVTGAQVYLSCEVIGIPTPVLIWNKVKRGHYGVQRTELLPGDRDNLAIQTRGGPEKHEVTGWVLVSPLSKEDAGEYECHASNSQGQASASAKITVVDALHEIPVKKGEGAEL

[2] = target: T2, IGFBP7 in human glioblastoma multiforme tissue (Homo sapiens, UniProt Q16270); assay: immunostaining of cells or tissue; frozen human or mouse brain tumour sections fixed in methanol; sdAb 4.43 (1:100 of 1 mg/ml) for 3 h at RT; detected with anti-c-myc antibody and alexa 647 secondary; conditions: one partner purified
T2 construct: source: endogenous, frozen human GBM tissue sections

[3] = target: IGFBP7 in mouse vessels of orthotopic U87MG.EGFRvIII glioblastoma (Mus musculus, UniProt Q61581); assay: cell-based or functional assay
Sequence of IGFBP7 in mouse vessels of orthotopic U87MG.EGFRvIII glioblastoma (Q61581 26-281): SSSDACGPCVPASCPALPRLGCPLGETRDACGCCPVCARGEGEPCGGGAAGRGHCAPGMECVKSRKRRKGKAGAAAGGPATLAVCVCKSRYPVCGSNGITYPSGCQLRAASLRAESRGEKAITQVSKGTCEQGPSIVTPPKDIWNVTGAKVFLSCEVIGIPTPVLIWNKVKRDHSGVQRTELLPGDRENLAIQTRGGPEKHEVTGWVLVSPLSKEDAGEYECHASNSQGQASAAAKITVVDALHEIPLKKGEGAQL

B1: anti-IGFBP7 single-domain antibody (sdAb) 4.43 (VHH)
VHH: QVKLEESGGGLVQAGGSLRLSCAASGRTSRRYAMGWFRQAPGKEREFVAGISRSGDGTHYAYSVKGRFTISRDNAANTVELQMNSLKPEDTAVYFCAAARTAFYYYGNDYNYWGQGTQVTVSS
notes: VHH isolated from an immune llama phage display library; For in vivo imaging the same sdAb was labelled with Cy5.5 succinimidyl ester (dye/antibody ratio of one) or conjugated to PEGylated Fe3O4 nanoparticles; also called anti-IGFBP7 sdAb; source: expressed periplasmically (vector pSJF2), purified by IMAC; not shown: c-Myc, C-terminal, kept
Q: With B1 as the binder, how does the Kd [1] read?
A: 20 nM

Q: And the koff [1]?
A: 0.0013 s⁻¹

Q: Does B1 bind [2]?
A: binds

Q: What about the “brain tumour fluorescence signal by in vivo optical imaging 24 h after i.v. injection of 50 μg anti-IGFBP7 sdAb-Cy5.5, against negative control (NC) sdAb-Cy5.5” value [3] of the same binder?
A: 6 fold
